According to the supplement of paper PMC10126150:
± gives the standard deviation of the averaged measurements.

Test system: ATP
Experiment: switch fluorescence ratio, 500 uM ATP over buffer (Cy3 cluster intensity, sum of 5 cycles each) (fold (ratio)); higher = stronger signal-on switching upon ATP binding; sequences stand for … in TCGTCGGCAGCGTCAGATGTGTATAAGAGACAGTTTTTTTTTTTTTTTTTTTTTTTTT…TC
Conditions: aptamer strand: ATP DNA aptamer (quencher-CACCTGGGGGAGTATTGCGGAGGAAGG + anchor), 100 nM annealed; ATP concentration: 500 uM
How it was run: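 For every switch-domain sequence, the fluorescence ratio is the mean of per-cluster values, each being summed target-cycle Cy3 intensity over summed buffer-cycle Cy3 intensity. Clusters outside 100-1000 RFU were excluded. On a modified Illumina MiSeq flow-cell, the Cy3-labelled switching-strand clusters were annealed to 100 nM quencher-labelled ATP aptamer, imaged in selection buffer and then after 15 min with 500 uM ATP at 22 °C. Five such cycles were run, with NaOH stripping and re-annealing between them.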
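Note: ATP exposure 15 min at 22 °C before imaging.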

Sequence | switch fluorescence ratio
CATATGGGGC | 1.048 ± 0.00092
CATATGTTGA | 0.975 ± 0.026
CATATTATGG | 0.981 ± 0.036
CATATTTTAG | 0.989 ± 0.032
CATCAATAAT | 1.045 ± 0.0083
CATCGACTGG | 0.965 ± 0.017
CATCGAGAGG | 1.01 ± 0.019
CATCGAGTGT | 1.05 ± 0.029
CATCGCAAAG | 4.33 ± 0.46
CATCGCTATG | 1.096 ± 0.0097
CATCGGATTT | 0.972 ± 0.01
CATCGGGTGG | 1.03 ± 0.09
CATCGGTGCG | 1.08 ± 0.19
CATCGGTGGG | 0.97 ± 0.016
CATCGGTGTG | 0.958 ± 0.047
CATCGTCACG | 1.007 ± 0.0025
CATCGTGGTT | 0.9778 ± 0.0043
CATCTCTAGC | 0.993 ± 0.012
CATCTCTGGA | 0.9986 ± 0.0016
CATCTGCGGG | 1.16 ± 0.17
CATCTTAGTG | 1.02 ± 0.057
CATCTTGGAA | 1.01 ± 0.015
CATGAAAAGT | 0.978 ± 0.047
CATGAAGCTG | 1.02 ± 0.018
CATGACCGAA | 1.014 ± 0.0039

Sequence | switch fluorescence ratio
CATGATAGCG | 0.9981 ± 0.0019
CATGATATGG | 0.969 ± 0.02
CATGCATATT | 1.01 ± 0.044
CATGCGAGGG | 1 ± 0.035
CATGGAATCG | 1.02 ± 0.035
CATGGAATTG | 0.989 ± 0.032
CATGGAGCGA | 1.24 ± 0.064
CATGGAGTAC | 1.02 ± 0.032
CATGGCACGT | 1.02 ± 0.011
CATGGCCTCT | 0.987 ± 0.034
CATGGCCTGA | 0.977 ± 0.018
CATGGGAATT | 0.982 ± 0.032
CATGGGGGGA | 0.994 ± 0.018
CATGGGGTTA | 1.04 ± 0.048
CATGGGGTTG | 0.978 ± 0.02
CATGGGTTGC | 0.99 ± 0.029
CATGGTAAAT | 0.984 ± 0.018
CATGGTACGC | 1.055 ± 0.0043
CATGGTAGGA | 0.975 ± 0.026
CATGGTGTTA | 1.01 ± 0.025
CATGGTTGG | 1.01 ± 0.051
CATGTACTTT | 1.08 ± 0.031
CATGTATGGA | 1.01 ± 0.041
CATGTCAAGC | 1.05 ± 0.024
CATGTGCTTC | 1.03 ± 0.0077

Sequence | switch fluorescence ratio
CATGTGGTCA | 1.03 ± 0.046
CATGTTGCTG | 1.09 ± 0.029
CATTAAGGGT | 0.992 ± 0.029
CATTAATTTG | 1.01 ± 0.012
CATTAATTTT | 0.968 ± 0.044
CATTACAGTG | 1.01 ± 0.014
CATTACGTGC | 0.996 ± 0.016
CATTACTGTA | 1.24 ± 0.076
CATTAGATCG | 0.997 ± 0.044
CATTATGGGT | 0.95 ± 0.013
CATTATTGGG | 0.9851 ± 0.0017
CATTCAGGGG | 1.2 ± 0.061
CATTCATGGA | 1.03 ± 0.035
CATTCGCCTC | 2.218 ± 0.015
CATTCGGGGC | 1.11 ± 0.038
CATTCGGGGT | 0.994 ± 0.029
CATTCGTTTC | 1.15 ± 0.05
CATTCTGACG | 1.18 ± 0.033
CATTCTGCGG | 1.049 ± 0.002
CATTCTTTGG | 0.9836 ± 0.0041
CATTGAAGAG | 0.998 ± 0.013
CATTGAGTTC | 0.978 ± 0.014
CATTGCGGGA | 1.02 ± 0.024
CATTGGAAGA | 1.02 ± 0.015
CATTGGGACA | 1.02 ± 0.019

Sequence | switch fluorescence ratio
CATTGGGTGC | 1.0458 ± 0.00093
CATTGTAATT | 0.981 ± 0.011
CATTGTATGT | 0.9421 ± 0.0087
CATTGTTAAT | 1.01 ± 0.04
CATTGTTGAG | 1.01 ± 0.049
CATTGTTGAT | 0.989 ± 0.017
CATTGTTTTG | 0.9676 ± 0.0041
CATTTAAAAA | 0.919 ± 0.032
CATTTAAGAT | 0.997 ± 0.024
CATTTACCGG | 0.996 ± 0.056
CATTTACTAT | 1.05 ± 0.021
CATTTAGGTT | 0.982 ± 0.019
CATTTATGCC | 1.17 ± 0.31
CATTTCCTGA | 1.02 ± 0.038
CATTTCCTGG | 1.01 ± 0.044
CATTTGAGTG | 1 ± 0.042
CATTTGATTG | 0.988 ± 0.013
CATTTGCCTT | 1.03 ± 0.035
CATTTGGAAT | 1.7 ± 0.97
CATTTGGGAC | 1.02 ± 0.047
CATTTGGGCG | 1.03 ± 0.015
CATTTTCCGG | 1.11 ± 0.16
CATTTTCGGC | 1.01 ± 0.039
CATTTTGTTG | 1.01 ± 0.024
CATTTTTAAG | 1 ± 0.011

Sequence | switch fluorescence ratio
CATTTTTCTG | 0.963 ± 0.06
CCAAAAAAAG | 1.03 ± 0.032
CCAAACGAGT | 0.9661 ± 0.0041
CCAAAGTATA | 1.166 ± 0.0013
CCAAATTGTG | 1.03 ± 0.03
CCAACAGCCC | 1.12 ± 0.079
CCAACATGAT | 1.017 ± 0.007
CCAACCATTG | 1.03 ± 0.011
CCAACTTTAC | 1.57 ± 0.037
CCAAGGAGAC | 1.35 ± 0.052
CCAAGGCTGG | 1.02 ± 0.043
CCAAGGGAGG | 1.01 ± 0.03
CCAAGGGGGG | 1.11 ± 0.22
CCAAGGGTGC | 1.63 ± 0.11
CCAAGTAAGG | 1.08 ± 0.031
CCAATAACGC | 1.22 ± 0.074
CCAATCACGG | 1.09 ± 0.012
CCAATCTGAC | 1.3 ± 0.14
CCAATGCAGC | 3.22 ± 0.27
CCAATGGATA | 1.03 ± 0.02
CCAATTGAAG | 1.02 ± 0.016
CCAATTGCAT | 1.12 ± 0.021
CCAATTGGTG | 1.03 ± 0.016
CCAATTTATG | 0.9919 ± 0.0078
CCAATTTGAA | 0.9913 ± 0.0081

Sequence | switch fluorescence ratio
CCAATTTGTG | 1 ± 0.028
CCAATTTTAC | 1.39 ± 0.055
CCACAATTTT | 1.43 ± 0.63
CCACCAATTT | 1.8 ± 1.2
CCACGGGGGG | 1.27 ± 0.1
CCACTGGGCG | 1.07 ± 0.014
CCACTGGGGG | 1.04 ± 0.028
CCAGACGGGC | 1.07 ± 0.059
CCAGACGGTC | 1.04 ± 0.085
CCAGAGGTTG | 0.999 ± 0.021
CCAGATAACG | 1.04 ± 0.022
CCAGATTACT | 1.01 ± 0.015
CCAGATTTGT | 1.01 ± 0.016
CCAGCACCTC | 1.45 ± 0.039
CCAGCATAAT | 1.41 ± 0.05
CCAGCCGTCG | 1.07 ± 0.04
CCAGCGTGCT | 1.11 ± 0.08
CCAGCTAGTT | 1.05 ± 0.086
CCAGGACGTA | 1.02 ± 0.027
CCAGGAGGCG | 0.999 ± 0.015
CCAGGAGTAG | 1.034 ± 0.0039
CCAGGAGTCA | 1.032 ± 0.0017
CCAGGATGCG | 0.971 ± 0.035
CCAGGATTAT | 1.027 ± 0.0034
CCAGGCTTGA | 1.04 ± 0.052

Sequence | switch fluorescence ratio
CCAGGCTTGT | 1.01 ± 0.018
CCAGGGACGA | 1.02 ± 0.024
CCAGGGGAGG | 1.11 ± 0.071
CCAGGGGCTG | 1.67 ± 0.89
CCAGGGGCTT | 1.31 ± 0.41
CCAGGGGGTC | 1.11 ± 0.14
CCAGGGTCGC | 0.9965 ± 0.0067
CCAGGTGGCT | 2.64 ± 0.3
CCAGGTTTGG | 1.03 ± 0.024
CCAGTAAGTG | 1.09 ± 0.03
CCAGTAATTT | 1.038 ± 0.0029
CCAGTACTTC | 1.11 ± 0.023
CCAGTCAACG | 0.9802 ± 0.0085
CCAGTGATGT | 1.04 ± 0.024
CCAGTGTATA | 1.002 ± 0.0013
CCATAACGGG | 0.97548 ± 0.0008
CCATAGGAAT | 1.06 ± 0.023
CCATAGGGGG | 0.989 ± 0.025
CCATATAGTT | 0.986 ± 0.03
CCATATCGTG | 0.988 ± 0.026
CCATATGGGG | 1.01 ± 0.019
CCATATTTAG | 0.996 ± 0.028
CCATCGGCTG | 1.06 ± 0.038
CCATCGTAAT | 4.84 ± 1.1
CCATGAGCAG | 2.06 ± 0.11

Sequence | switch fluorescence ratio
CCATGGGTTG | 1.01 ± 0.016
CCATGTTGAT | 1 ± 0.039
CCATTAATCT | 1.34 ± 0.46
CCATTCATTT | 0.991 ± 0.02
CCATTCTTGA | 0.996 ± 0.037
CCATTCTTGG | 0.977 ± 0.018
CCATTGTTAT | 0.988 ± 0.017
CCATTGTTTT | 0.997 ± 0.018
CCATTTGAGA | 0.998 ± 0.022
CCATTTTGCA | 1.04 ± 0.05
CCCAAGGGCA | 1.02 ± 0.051
CCCAATTTGC | 1.32 ± 0.022
CCCACAGGAC | 1.73 ± 0.14
CCCAGCTTGT | 1.035 ± 0.0031
CCCAGGCGGA | 1.65 ± 0.78
CCCAGGTAGC | 4.65 ± 0.43
CCCATGTATC | 1.09 ± 0.011
CCCATTTGTA | 1 ± 0.026
CCCATTTTGT | 0.991 ± 0.02
CCCCATTCCG | 1.04 ± 0.022
CCCCGAAACT | 2.28 ± 1.5
CCCCGAGCCG | 1.02 ± 0.06
CCCGATTTTT | 0.993 ± 0.017
CCCGCTGCTT | 1.33 ± 0.021
CCCGGCCATT | 1.05 ± 0.013
